Test results as given in the supplement of paper PMC10567573.

Assay: protein stability index of a GFP-peptide fusion (GPS, HEK-293T) (PSI 1-6); higher = more stable
Settings: c terminus: native
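Further: lentivirally expressed fusion library, cells FACS-sorted into six equal-sized GFP/DsRed ratio bins, PSI computed from sequencing read fractions per bin weighted by bin number.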

## HSLRAVSTDPPHHDHHDEFCLMPS [BEX2 addS]
parent: NP_116010.1
  protein stability index: 3.84

## DGWIRVSSDNVADLHEKYSGSTPS [PSMB5 addS]
parent: NP_002788.1
  protein stability index: 3.98

## CQPISFSGFGAEDDDLGGLGLGPS [POLD2 addS]
parent: NP_006221.1
  protein stability index: 2.6

## LPALFTDLYSQEITAEEAREALPH [SNF8 addH]
parent: NP_009172.2
  protein stability index: 4.88

## DGWIRVSSDNVADLHEKYSGSTPH [PSMB5 addH]
parent: NP_002788.1
  protein stability index: 3.83

## CQPISFSGFGAEDDDLGGLGLGPH [POLD2 addH]
parent: NP_006221.1
  protein stability index: 2.24

## LPALFTDLYSQEITAEEAREALPS [SNF8 addS]
parent: NP_009172.2
  protein stability index: 4.4

## EQRNSRWNTVLRAVKAKTHHLEPS [TRPA1 addS]
parent: NP_015628.1
  protein stability index: 4.6

## EQRNSRWNTVLRAVKAKTHHLEPH [TRPA1 addH]
parent: NP_015628.1
  protein stability index: 5.05
